Results published in US11634477 (dated 2023).

B1: C106 (antibody, V domains shown)
VH: QLQLQESGPGLVKPSETLSLTCTVSGASVSSGSYYWSWIRQPPGKGLEWIGYIYYSGSTNYNPSLKSRVTISVDTSKNQFSLKLSSVTAADTAVYYCARERPGGTYSNTWYTPTDTNWFDTWGQGTLVTVSS
VL: SYELTQPPSVSVAPGKTARITCGGNNIGSKSVHWYQQKPGQAPVLVIYFDSDRPSGIPERFSGSNSGNTATLTISRVEAGDEADYYCQVWDSSRDHVVFGGGTKLTVL
B2: C040 (antibody, V domains shown)
VH: not shown
VL: SYELTQPPSVSVAPGQTARITCGGNNIGSKSVHWYQQKPGQAPVLVVYDDSDRPSGIPERFSGSNSGNTATLTISRVEAGDEADYYCQVWDSSSDQGVFGGGTKLTVL
B3: C153 (antibody, V domains shown)
VH: EVQLVESGGGLIQPGGSLRLSCAASGFTVSSNYMSWVRQAPGKGLEWVSVIYSGYSTYYVDSVKGRFTISRDNSKNTLYLQMNSLRAEDTAVYYCARVGGAHSGYDGSFDYWGQGTLVTVSS
VL: QSALTQPASVSGSPGQSITISCTGTSSDVGSYNLVSWYQQHPGKAPKLMIYEGSKRPSGVSNRFSGSKSGNTASLTISGLQAEDEADYYCCSYAGSSTWVFGGGTKLTVL
B4: C146 (antibody, V domains shown)
VH: EVQLVESGGGLVKPGGSLRLSCAASGLTFTAYRMNWVRQAPGKGLEWLSSISNTNGDIYYADSVKGRFTISRDNAKNSLYLQMNSLRADDTAVYYCARDVASNYAYFDLWGQGTLVTVSS
VL: QSALTQPASVSGSPGQSITISCTGTSSDIGVYNYISWSQQHPGKAPKVMIYDVTNRPSGVSNRFSGSKSGNTASLTISGLQAEDEADYYCSSYRGSSTPYVFGTGTKVTVL
B5: C212 (antibody, V domains shown)
VH: QVQLVQSGAEVKKPGASVKVSCKASGYTVTGYYIHWVRQAPGQGLEWMGWISPNSGGTNYAQKFQGWVTMTRDMSITTAYMELSRLRSDDTAVYYCARERYFDLGGMDVWGQGTTVTVSS
VL: LTQPASVSGSPGQSITISCTGTSSDVGSYNLVSWYQQHPGKAPKLMIYEDSKRPSGVSNRFSGSKSGNTASLTISGLQAEDEADYYCCSYAGSSTRLFGGGTKLTVL
B6: C036 (antibody, V domains shown)
VH: QVQLQQWGAGLLKPSETLSRTCAVFGGSFTNYYWSWIRQSPGKGLEWIGEINDSGITNYNPSLKSRVTISVDTSKNQFSLSLRSVTAADTAVYYCARRRSFSRPSSIDYWGQGTLVTVSS
VL: not shown
B7: C119 (antibody, V domains shown)
VH: QVQLVQSGAEVKKPGASVKVSCKASGYTFTSYYMHWVRQAPGQGLEWMGIINPSGGSTSYAQKLQGRVTMTRDTSTSTVYMELSSLRSEDTAVYYCARANHETTMDTYYYYYYMDVWGKGTTVTVSS
VL: QSALTQPASVSGSPGQSITISCTGTSSDVGGYKYVSWYQRHPGKAPKLMIYDVSNRPSGVSNRFSGSKSGNTASLTISGLQAEDEADYYCSSYTSSSTSVVFGGGTQLTVL
B8: C038 (antibody, V domains shown)
VH: VQLVESGGGVVQPGRSLRLSCAASGFTFNRIAMYWVRQAPGKGLEWVAVISFDGSYEYYAESVKGRFAISRDNSKNTLYLQMNSLRAEDTAVYYCAKSPMGYCTNGVCYPDSWGQGTLVTVSS
VL: NFMLTQPHSVSESPGKTVTISCTGSSGSIASNYVQWYQQRPGSAPTTVIYEDTQRPSGVPDRFSGSIDSSSNSASLTISGLKTEDEADYYCQSYDINSRWVFGGGTKLTVL
B9: C160 (antibody, V domains shown)
VH: QVQLVQSGAEVKKPGASVKVSCKASGYTFTSYGISWVRQAPGQGLEWMGWISAYNGNTNYAQKLQGRVTMTTDTSTSTAYMELRSLRSDDTAVYYCARVPASYGDDDYYYYYGMDVWGQGTTVTVSS
VL: SYELTQPPSVSVSPGQTARITCSGDALPKQYAYWYQQKPGQAPVLVIYKDSERPSGIPERFSGSSSGTTVTLTISGVQAEDEADYYCQSADSSGTLWVFGGGTKLTVL
B10: C101 (antibody, V domains shown)
VH: QVQLVESGGGLIQPGGSLRLSCAASGFIVSSNYMSWVRQAPGKGLEWVSVIYSGGSTFYTDSVKGRFTISRDNSKNTLYLQMNSLRAEDTAVYYCVRDYGDFYFDYWGQGTLVTVSS
VL: EIVLTQSPGTLSLSPGERATLSCRASQSVSSSYLAWYQQKPGQAPRLLIYGASSRATGIPDRFSGGGSETDFTLTISRLEPEDCAVYYCQQYGSSPRTFGQGTKVEIK
B11: C102 (antibody, V domains shown)
VH: QVQLVESGGGLIQPGGSLRLSCAASGFIVSSNYMSWVRQAPGKGLEWVSVIYSGGSTFYADSVKGRFTISRDNSKNTLYLQMNSLRAEDTAVYYCARDYGDYYFDYWGQGTLVTVSS
VL: not shown
B12: C037 (antibody, V domains shown)
VH: QLVQSGPEVKKPGTSVKVSCKASGFTFTSSAMQWVRQARGQRLEWIGWIVVGSGNTNYAQKFQERVTITRDMSTSTAYMELSSLRSEDTAVYYCAAPYCSGGSCNDAFDIWGQGTMVTVSS
VL: not shown
B13: C135 (antibody, V domains shown)
VH: QVQLVESGGGVVQPGRSLRLSCAASGFTFSSYAMHWVRQAPGKGLEWVAVIPFDGRNKYYADSVTGRFTISRDNSKNTLYLQMNSLRAEDTAVYYCASSSGYLFHSDYWGQGTLVTVSS
VL: DIQMTQSPSTLSASVGDRVTITCRASQSISNWLAWFQQKPGKAPKLLIYEASSLESGVPSRFSGSGSGTEFTLTISSLQPDDFATYYCQQYNSYPWTFGQGTKVEIK
B14: C010 (antibody, V domains shown)
VH: EVQLVESGGGVVQPGRSLRLSCAASGFTFSSYAMHWVRQAPAKGLEWVAVILYDGSGKYYADSVKGRFTISRDNSKNTLYLQMNSLRAEDTAVYYCARDGIVDTALVTWFDYWGQGTLVTVSS
VL: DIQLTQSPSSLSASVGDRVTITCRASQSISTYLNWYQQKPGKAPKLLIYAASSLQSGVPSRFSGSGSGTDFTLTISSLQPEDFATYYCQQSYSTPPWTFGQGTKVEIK
B15: C032 (antibody, V domains shown)
VH: EVQLVQSGAEVKKPGESLKISCKGSGYSFTSYWIGWVRQMPGKGLEWMGIIYPGDSDTRYSPSFQGQVTISADKSISTAYLQWSSLKASDTAMYYCARGVAVDWYFDLWGRGTLVTVSS
VL: QSVLTQPPSVSGAPGQRVTISCTGSSSNIGAGYDVHWYQQLPGTAPKLLIYGNSNRPSGVPDRFSGSKSGTSASLAITGLQAEDEADYYCQSYDSSLSALYVFGTGTKVTVL
B16: C152 (antibody, V domains shown)
VH: QVQLVQSGAEVKKPGASVKVSCKASGYTFTSYGISWVRQAPGQGLEWMGWISAYNGNTNYAQKLQGRVTMTTDTSTSTAYMELRSLRSDDTAVFYCARDRGGHDFWSGYGFYYYYGMDVWGQGTTVTVSS
VL: DIQMTQSPSSLSASVGDRVTITCRASQGISNYLAWYQQRPGKVPKLLIFAASTLQSGVPSRFSGSGSGTDFTLTISSLQPEDVATYYCQKYNSAPRTFGQGTKVEIK
B17: C163 (antibody, V domains shown)
VH: QVQLQQWGAGLLKPSETLSLTCAVSGGSLSGFYWTWIRQPPGKGLEWIGETNHFGSTDYKPSLKSRVTISVDMSRNQFSLKVTSVTAADTAVYYCARKPLLHSDLSPGAFDIWGQGTMVTVSS
VL: EIVLTQSPGTLSLSPGERATLSCRASQTVSANYLAWYQQKAGQAPRLLIYGASKRATGIPDRFSGSGSGTDFTLSISRLEPEDFAVYYCQQYVTTPRTFGGGTKVEI
B18: C162 (antibody, V domains shown)
VH: QVQLQQWGAGLLKPSETLSLTCAVSGGSLSGFYWTWIRQPPGKGLEWIGETNHFGSTDYKASLKSRVTISVGMSRNQFSLKVTSLTAADTAVYYCARKPLLYSDFSPGAFDVWGQGTMVTVSS
VL: EIVLTQSPGTLSLSPGERATLSCRASQTLTANYLAWYQQKPGQAPRLLIYGASKRAAGIPDRFSGSGSGTDFTLSITRLEPEDFAVYYCQQYHTTPRTFGGGTKVEI
B19: C161 (antibody, V domains shown)
VH: QVQLQQWGAGLLKPSETLSLTCAVSGGSLSGFYWTWIRQPPGKGLEWIGETNHFGSTDYKPSLKSRVTISVDMSRNQFSLIMTSVTAADTAVYYCARKTLLFSDFSPGAFDIWGQGTMVTVSS
VL: EIVLTQSPGTLSLSPGERATLSCRASQTLTANYLAWYQQKPGQAPRLLIYGASKRATGIPDRFSGSGSGTDFTLSISRLEPEDFAVYYCQQYGTTPRTFGGGTKVEI
B20: C129 (antibody, V domains shown)
VH: QVQLVESGGGVVQPGRSLRLSCAASGFTFSSYGMNWVRQAPGKGLEWVAVISYDGSNTYYTDSVKGRFTISRDNSKNTLYLQMNSLRVDDTATYYCAKGPRFGWSYRGGSGFDIWGQGTMVTVSS
VL: DIQMTQSPSSLSASVGDRVTITCQASQDISNYLNWYQQKPGKAPKLLIYDASNLETGVPSRFSGSESGTDFTFTISSLQPEDIATYYCQQYDNLPITFGQGTRLEIK
B21: C149 (antibody, V domains shown)
VH: QVQLVESGGGVVQPGRSLRLSCAASGFTFSTYGMHWVRQAPGKGLEWVAVISYDGSNKYFADSVKGRFTISRDNSKNTLYLQMNSLRPEDTAVYYCAKVGMEYSSGWYGEEIDFWGQGTLVTVSS
VL: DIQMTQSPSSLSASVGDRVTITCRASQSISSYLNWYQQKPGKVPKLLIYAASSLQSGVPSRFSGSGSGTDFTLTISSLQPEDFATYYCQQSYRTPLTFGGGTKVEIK
B22: C144 (antibody, V domains shown)
VH: EVQLVESGGGLIQPGGSLRLSCAASGFTVSNNYMSWVRQAPGKGLEWVSVIYSGGSTYYADSVKGRFTISRDKSKNTLYLQMNRLRAEDTAVYYCAREGEVEGYNDFWSGYSRDRYYFDYWGQGTLVTVSS
VL: QSALTQPASVSGSPGQSITISCTGTSSDVGGYNYVSWYQQHPGKAPKLMIYDVSNRPSGVSNRFSGSKSGNTASLTISGLQAEDEADYYCSSYTSSSTRVFGTGTKVTVL
B23: C112 (antibody, V domains shown)
VH: QVQLVESGGGVVQPGRSLRLSCAASGFTFSSHAMHWVRQAPGKGLEWVAVISYDGSNKYYADSVKGRFTISRDNSKNTLYLQMNSLRAEDTAVYYCAREDYYDSSGSFDYWGQGTLVTVSS
VL: QSALTQPASVSGSPGQSITISCTGTSSDVGGYNYVSWYQQHPGKAPKLMIYDVSNRPSGVSNRFSGSKSGNTASLTISGLQAEDEADYYCSSYTSSSTWVFGGGTKLTVL

Tests used:
SARS-CoV-2 RBD = SARS-CoV-2 RBD (SARS-CoV-2, UniProt P0DTC2); assay: ELISA
SARS-CoV RBD = SARS-CoV RBD (SARS-CoV, UniProt P59594); assay: ELISA

Row | Binder | EC50 (SARS-CoV-2 RBD) | EC50 (SARS-CoV RBD)
1 | B1 | 19 ng/mL | 107 ng/mL
2 | B2 | 11.1 ng/mL | 
3 | B3 | 3.17 ng/mL | > 1000 ng/mL
4 | B4 | > 1000 ng/mL | > 1000 ng/mL
5 | B5 | > 1000 ng/mL | > 1000 ng/mL
6 | B6 | 64.1 ng/mL | 
7 | B7 | 3.57 ng/mL | > 1000 ng/mL
8 | B8 | 4.69 ng/mL | 
9 | B9 | 2.54 ng/mL | 
10 | B10 | 1.51 ng/mL | > 1000 ng/mL
11 | B11 | 4.54 ng/mL | > 1000 ng/mL
12 | B12 | 1.93 ng/mL | 
13 | B13 |  | > 1000 ng/mL
14 | B14 | 5.44 ng/mL | > 1000 ng/mL
15 | B15 | 99.3 ng/mL | 
16 | B16 | 1.88 ng/mL | 
17 | B17 | 1.77 ng/mL | 
18 | B18 | 1.18 ng/mL | 
19 | B19 | 1.63 ng/mL | 
20 | B20 | 1.16 ng/mL | 
21 | B21 | 1.79 ng/mL | 
22 | B22 | 3.24 ng/mL | > 1000 ng/mL
23 | B23 | 3.38 ng/mL | > 1000 ng/mL
